Measurements taken from IntAct's records for PubMed 18688256.

Target: T1, il33_human IL33 (UniProt O95760)
T1 sequence: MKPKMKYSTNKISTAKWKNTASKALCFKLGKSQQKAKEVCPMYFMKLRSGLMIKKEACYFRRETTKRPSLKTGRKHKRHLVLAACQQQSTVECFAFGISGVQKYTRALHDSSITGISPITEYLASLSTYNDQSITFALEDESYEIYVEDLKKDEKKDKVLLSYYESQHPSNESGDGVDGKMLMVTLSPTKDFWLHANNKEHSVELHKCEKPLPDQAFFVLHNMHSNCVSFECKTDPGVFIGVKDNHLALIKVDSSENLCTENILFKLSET

| effect of a mutation on the interaction | Substance |
| --- | --- |
| decreasing interaction | Histone H2A type 1 (Homo sapiens) (from UniProt P0C0S8) E93L |
| decreasing interaction | Histone H2A type 1 (Homo sapiens) (from UniProt P0C0S8) E92R |
